Results as given in patent US20060115428A1 (MorphoSys, published 2006).
Numbering of substitutions follows the chain as printed. Like-named read-outs stand apart in the source and are kept apart here. One block for each molecule: values may come before it.

How the values were obtained:
[1] = target: recombinant fibronectin domain ED-B (His)6 (human) (UniProt P02751); assay: SPR (BIAcore), ED-B immobilised on chip
[2] = target: recombinant fibronectin domain ED-B (His)6 (human) (UniProt P02751); assay: SPR (BIAcore), ED-B immobilised on chip; remark: listed apart in the source
[3] = target: recombinant fibronectin domain ED-B (His)6 (human) (UniProt P02751); assay: SPR (BIAcore), ED-B immobilised on chip; remark: listed apart in the source
[4] = target: T1, recombinant fibronectin domain 7-8-9 (without ED-B) (UniProt P02751-1 1173-1446, limits assumed); assay: specificity ELISA on immobilised recombinant domain 7-8-9
T1 construct: domain: fibronectin domains 7-8-9 (without ED-B)

[5] = target: T2, recombinant fibronectin domain ED-B (His)6 (human, UniProt P02751 1266-1356); assay: SPR (BIAcore), ED-B immobilised on chip (about 100 RU), Fab in flow
T2 construct: domain: ED-B; Produced by standard procedures; immobilised on ELISA plates or on the BIAcore chip; also called recombinant ED-B; human ED-B
Protocol: (§1) F1-Chips (Biacore, Sweden) were coated with about 200 RU of ED-B (30 μg/ml, 10 mmol of acetate buffer, pH 4.0) and reference flow cells with a corresponding amount of human serum albumin (20 μg/ml, 10 mmol of acetate buffer, pH 4.5) with use of standard EDC-NHS-amine-coupling chemistry. The antigen density was reduced to about 100 RU for the Fab characterization of the second maturation. The regeneration was carried out with 10 mmol of HCl. All kinetic measurements were carried out in PBS buffer (136 mmol of NaCl, 2.7 mmol of KCl, 10 mmol of Na₂HPO₄, 1.76 mmol of KH₂PO₄, pH 7.4) with a flow rate of 20 μl/minute with use of a Fab concentration range of 1.5-500 nmol. The injection period was 1 minute in each case. All sensograms were evaluated with use of BIA evaluation software 3.1.

[6] = target: T3, recombinant fibronectin domain 6 (UniProt P02751 1086-1172, limits assumed); assay: specificity ELISA on immobilised recombinant fibronectin domain 6
T3 construct: domain: fibronectin domain 6; also called 6FN; 6-FN

[7] = target: T2, recombinant fibronectin domain ED-B …; assay: SPR (BIAcore); ratio to parent clone MOR02715
Protocol: as §1

[8] = target: T2, recombinant fibronectin domain ED-B …; assay: SPR (BIAcore), ED-B immobilised on chip, Fab in flow
Protocol: as §1

[9] = target: T2, recombinant fibronectin domain ED-B …; assay: as above; remark: listed apart in the source
Protocol: as §1
The properties of twelve selected binding molecules was determined by BIAcore analysis (see Table 1). […] At least two independent measurements with Fab molecules from different batches were performed for protein expression and protein purification. The binding rate (Kₒₙ) and the dissociating-off rate (Koff) of the Fab molecule are indicated in separate columns.

[10] = target: T1, recombinant fibronectin domain 7-8-9 …; assay: specificity ELISA on immobilised recombinant domain 7-8-9; remark: listed apart in the source
[11] = target: T3, recombinant fibronectin domain 6; assay: specificity ELISA on immobilised recombinant fibronectin domain 6; remark: listed apart in the source

Molecule: AP39, covalent dimer of the anti-ED-B scFv antibody L19
koff [1]: 0.0015 s⁻¹
Kd [2]: 2.4 nM
koff [2]: 0.00149 s⁻¹
kon [2]: 660000 M⁻¹ s⁻¹
kon [3]: 675000 M⁻¹ s⁻¹

B2: MOR03062 (Fab, V domains shown)
VH: QVQLVESGGGLVQPGGSLRLSCAASGFTFSSYGMHWVRQAPGKGLEWVSVISSSGSYIYYADSVKGRFTISRDNSKNTLYLQMNSLRAEDTAVYYCARNKVGFDVWGQGTLVTVSS
VL: DIALTQPASVSGSPGQSITISCTGTSSDGGGYNTVSWYQQHPGKAPKLMIYYVHKRPSGVSNRFSGSKSGNTASLTISGLQAEDEADYYCQSWDLSVHQVVFGGGTKLTVLG
notes: Fab, L-CDR3 derivative of MOR02715
x-Fold Improvement Relative to the Parent Clone, KD [7]: 15.8 fold
x-Fold Improvement Relative to the Parent Clone, Koff [7]: 4.2 fold
x-Fold Improvement Relative to the Parent Clone, Kon [7]: 4 fold
Kd [8]: 3.4 nM
koff [8]: 0.011 s⁻¹
kon [8]: 3.5e+06 M⁻¹ s⁻¹

B3: MOR03255 (Fab, V domains shown)
VH: B2 VH with S53N, S54R, G55S
VL: B2 VL
notes: Fab, H-CDR2 derivative of MOR03062
binding result [4]: no binding
Kd [5]: 0.03 nM
koff [5]: 8.6e-05 s⁻¹
kon [5]: 4.9e+06 M⁻¹ s⁻¹
binding result [6]: no binding

B7: MOR03064 (Fab, V domains shown)
VH: B2 VH
VL: B2 VL with S96L, V97A, H98P, Q99S
notes: as for B2
x-Fold Improvement Relative to the Parent Clone, KD [7]: 5.3 fold
x-Fold Improvement Relative to the Parent Clone, Koff [7]: 3.5 fold
x-Fold Improvement Relative to the Parent Clone, Kon [7]: 1.7 fold
Kd [8]: 10 nM
koff [8]: 0.014 s⁻¹
kon [8]: 1.5e+06 M⁻¹ s⁻¹

B9: MOR02715 (Fab, V domains shown)
VH: B2 VH
VL: B2 VL with S92A, L95N, S96Q, V97G, H98M, Q99K, V100Y
notes: HuCAL GOLD Fab, VH3/L2
Kd [9]: 53.7 nM
koff [9]: 0.047 s⁻¹
kon [9]: 890000 M⁻¹ s⁻¹
Kd [8]: 53.7 nM
koff [8]: 0.047 s⁻¹
kon [8]: 990000 M⁻¹ s⁻¹
binding result [10]: no binding
binding result [11]: no binding

B10: MOR02619 (Fab, V domains shown)
VH: QVQLQESGPGLVKPGETLSLTCTVSGGSISSYYWSWIRQAPGKGLEWIGIGHWGSTQYNPSLKGRVTISVDTSKNQFSLKLSSVTAEDTAVYYCARFFDVWGQGTLVTVSS
VL: DIVLTQPPSVSGAPGQRVTISCSGSSSNIGSNTVRWYQQLPGTAPKLLIYSNNKRPSGVPDRFSGSKSGTSASLAITGLQSEDEADYYCQSWDGASTGVFGGGTKLTVLG
notes: HuCAL GOLD Fab, VH4/L1
Kd [9]: 15.4 nM
koff [9]: 0.012 s⁻¹
kon [9]: 780000 M⁻¹ s⁻¹
Kd [8]: 15.4 nM
koff [8]: 0.012 s⁻¹
kon [8]: 780000 M⁻¹ s⁻¹
binding result [10]: no binding
binding result [11]: no binding

Continued, values first:

binding result [4]: no binding
Kd [5]: 0.7 nM
koff [5]: 0.0016 s⁻¹
kon [5]: 3.5e+06 M⁻¹ s⁻¹
binding result [6]: no binding
B1: MOR03245 (Fab, V domains shown)
VH: QVQLQESGPGLVKPGETLSLTCTVSGGSISSYYWSWIRQAPGKGLEWIGVIHKWGFTNYNPSLKSRVTISVDTSKNQFSLKLSSVTAADTAVYYCARFFDVWGQGTLVTVSS
VL: DIVLTQPPSVSGAPGQRVTISCSGSSSNIGSNTVRWYQQLPGTAPKLLIYSNNKRPSGVPDRFSGSKSGTSASLAITGLQSEDEADYYCWTGMSYHFVFGGGTKLTVLG
notes: Fab, H-CDR2 derivative of MOR03069

binding result [4]: no binding
Kd [5]: 0.03 nM
koff [5]: 6.1e-05 s⁻¹
kon [5]: 3.1e+06 M⁻¹ s⁻¹
binding result [6]: no binding
B4: MOR03252 (Fab, V domains shown)
VH: B2 VH with S53N, S54Y, G55S, S56W, Y57H
VL: B2 VL
notes: as for B3

binding result [4]: no binding
Kd [5]: 0.08 nM
koff [5]: 0.0003 s⁻¹
kon [5]: 5.3e+06 M⁻¹ s⁻¹
binding result [6]: no binding
B5: MOR03257 (Fab, V domains shown)
VH: B2 VH with S53N, S54R, S56N
VL: B2 VL
notes: as for B3

binding result [4]: no binding
Kd [5]: 0.07 nM
koff [5]: 0.0002 s⁻¹
kon [5]: 3.3e+06 M⁻¹ s⁻¹
binding result [6]: no binding
B6: MOR03251 (Fab, V domains shown)
VH: B2 VH with S53N, S54M, G55S, S56Y, Y57T
VL: B2 VL
notes: as for B3

binding result [4]: no binding
Kd [5]: 0.13 nM
koff [5]: 0.0002 s⁻¹
kon [5]: 1.6e+06 M⁻¹ s⁻¹
binding result [6]: no binding
B8: MOR03253 (Fab, V domains shown)
VH: B2 VH with S53N, S54M, S56F, Y57E
VL: B2 VL
notes: Fab, H-CDR2 derivative
